The text below walks through data of the supplement of paper PMC12042874.

± gives the uncertainty stated by the source.

The series is described as follows: amyloid nucleation score (Sup35N fusion, yeast selection) (log enrichment); library NNK2; higher = more nucleation; inactive = no reads after selection. A digest of the protocol: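 DiMSum was used to calculate nucleation scores as log enrichment of output over input reads, centred on the mode score of non-aggregating sequences. Sequences with fewer than 100 input reads were not scored. Input and output came from Illumina sequencing of plasmid inserts in psi-negative yeast expressing peptides of 20 random codons fused to Sup35N, induced 24 hours with 100 μM copper sulfate and then grown 7 days at 30°C on medium lacking adenine and uracil.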
For the substance QRDHWNAALCKVLLLSGLLR, the amyloid nucleation score was 0.057 ± 0.33.

With CMFKQYYYCARAYSVSWTVM, the amyloid nucleation score was -0.013 ± 0.56.

On to NYLRYLLMDSHMRLMDRWKQ, for which the amyloid nucleation score worked out at 4.87 ± 0.069.

With YSTIKIHLPGLVVRNQSLVR, the amyloid nucleation score entry is “inactive”.

In the case of DKMYVIIVGPLAAMENVNNT, the amyloid nucleation score was found to be 0.024 ± 0.48.

FSAYLLLLYKN had an amyloid nucleation score of -0.738 ± 0.76.

As to WSYHF, the amyloid nucleation score is -0.305 ± 0.8.

In the case of VLCTYRGLDITL, the amyloid nucleation score was 0.166 ± 0.21.

For PLVTWHFS, the amyloid nucleation score stood at 0.413 ± 0.31.

Substance STSFRASSGDKYEFDVKHLV had an amyloid nucleation score of 0.195 ± 0.76.

Substance RYRALPTMPLEMSVQGDLRV had an amyloid nucleation score of -0.319 ± 0.25.

Turning to MDLRWKSSGRKVNLNRLIQR, the amyloid nucleation score was 4.647 ± 0.036.

With FHLFSVGTEGTPRRRKFAGD, the amyloid nucleation score was -0.481 ± 0.78.

As to TIIKDIVIVDVFSSN, the amyloid nucleation score turned out to be 1.53 ± 0.15.

In turn, VGVWTALTPCKVVFTSDRLS registered an amyloid nucleation score of 1.23 ± 0.4.

Substance DCFTRYGCAGKYRVGAQGSS yielded an amyloid nucleation score of 1.47 ± 0.47.

IDLLFDFTDLMWLIYPVFLL yielded an amyloid nucleation score of -1.93 ± 0.75.

Consider ANGIFAEGGVREDSIH, for which the amyloid nucleation score result is “inactive”.

HSRQCFTHFGYFTGLGRVRV came in with an amyloid nucleation score of 2.18 ± 0.1.

FYRNPHR displayed an amyloid nucleation score of 0.706 ± 0.81.

In turn, YDCLCFFPWCRLFNSRKSMA gave an amyloid nucleation score of 0.34 ± 0.14.

TLWEGVFKRSWLGVSGSKVE: the amyloid nucleation score was determined as 0.401 ± 0.23.

Regarding EVWRWIFNHGLPRHAGHIVA, the amyloid nucleation score amounted to 0.312 ± 0.43.

As for SVIASWKSCLSLLVFQH, the amyloid nucleation score is -0.695 ± 0.64.

In turn, YRRRSKHAVNKGRMCA had an amyloid nucleation score of 1.3 ± 0.28.

In turn, FSRGDIVA displayed an amyloid nucleation score of 4.41 ± 0.056.

As for TIWGYARC, the amyloid nucleation score was determined as 2.67 ± 0.11.

In turn, YVCVNWTFTFLFLCLVGRSL had an amyloid nucleation score of 0.36 ± 0.22.

In the case of HFIKKGDYNKTTKYSPCNEL, the amyloid nucleation score is -0.941 ± 0.45.

In turn, GTKKARSGARQCLGWEILWM returned an amyloid nucleation score of 0.516 ± 0.43.

As to GMSSIINVELAGQWTWVKFN, the amyloid nucleation score was 4.18 ± 0.066.

FTCTGRRVYAQLKNVFIFVL yielded an amyloid nucleation score of 1.92 ± 0.19.

Substance NMYFEVALFT registered an amyloid nucleation score of -1.22 ± 0.64.

YQSDLTYLE had an amyloid nucleation score of -0.518 ± 0.35.

The substance MNSIKMEGVRYNNPNDYTFC registered an amyloid nucleation score of -1.14 ± 1.1.

With RVRIYMTWFFTPIIWERWDG, the amyloid nucleation score result is “inactive”.

In turn, NLARYLLRKELARYFMSQ had an amyloid nucleation score of -0.578 ± 0.41.

Regarding IYDNMVDKFVSKGRCAVSPD, the amyloid nucleation score was -0.066 ± 0.55.

For DHLNV, the amyloid nucleation score was -0.401 ± 0.63.

NDYEPRCMFGRIVCSNGPEM gave an amyloid nucleation score of 1.14 ± 0.42.

Consider TDVRGDTSRGLGSFKLFRIM, for which the amyloid nucleation score is -0.354 ± 0.76.

Regarding SCQLQDKLMLS, the amyloid nucleation score was found to be 0.999 ± 0.16.

For the substance GMEINAYY, the amyloid nucleation score worked out at 0.048 ± 0.65.

FCWSCWLFQDCSYVVIGREV yielded an amyloid nucleation score of 8.556 ± 0.048.

EPCNTNIK had an amyloid nucleation score of -0.553 ± 0.29.

Regarding DSDNIPNHTYMILFGIQFHS, the amyloid nucleation score is -0.311 ± 0.65.

The substance VCWGFSFATHGLWDMAF returned an amyloid nucleation score of -0.32 ± 0.26.

Regarding SHGWGTAAVWNIAVCRRSLG, the amyloid nucleation score was 0.129 ± 0.39.

As to FCLYFSKNF, the amyloid nucleation score is 3.63 ± 0.13.

Turning to DTDDVNHYSFTPRALSSGFI, the amyloid nucleation score entry is “inactive”.

The substance RPFDHANRCRSAVYT registered an amyloid nucleation score of 1.63 ± 0.47.

The substance FDDEMVRCIFNYRLSGYRPL had an amyloid nucleation score of 1.47 ± 0.22.

Regarding NQNVSLGVTMCFNSNYDRQG, the amyloid nucleation score was 7.53 ± 0.081.

In the case of MWMEVTRPPTGHFRIRGGQA, the amyloid nucleation score result is “inactive”.

With HFNLCTQNMSNGYRDCRHT, the amyloid nucleation score amounted to 4.68 ± 0.11.

As for FSMPTYSSALAFM, the amyloid nucleation score was -0.352 ± 0.28.

MPVHSQSRMVRRRVDKTI displayed an amyloid nucleation score of -0.632 ± 0.76.

As for QSSYVATWVTLNLGCYFDWK, the amyloid nucleation score came to 0.284 ± 1.1.

TAALRVILGCMYNIWQMWHR registered an amyloid nucleation score of 1.06 ± 0.57.

As for MVNCDYGPLLS, the amyloid nucleation score entry was “inactive”.

For CYVRI, the amyloid nucleation score was -0.603 ± 1.1.

As for LKYVLARCFRKCWYVLWTSA, the amyloid nucleation score is -0.451 ± 0.54.

As to LCLTLVRPPRSCMLATL, the amyloid nucleation score result was “inactive”.

As to EYIYLNLYISDNLYSSGKSG, the amyloid nucleation score was 2.88 ± 0.16.

The substance VFLAPRMF displayed an amyloid nucleation score of -0.864 ± 0.45.

As to ISLIFCNSTRIYKFLLMFSW, the amyloid nucleation score entry is “inactive”.

In turn, FHPVFGMFWRTSNERSGLFQ showed an amyloid nucleation score of -1.03 ± 0.48.

Turning to HAVDTHFADRGSLALKYSKC, the amyloid nucleation score came to 1.19 ± 0.59.

For the substance YDQVSFAL, the amyloid nucleation score is -0.584 ± 0.76.

SWYVGLCMYVPWYERRANGH returned an amyloid nucleation score of 11.04 ± 0.067.

The substance TELHLTDFWLRIMRQLFRFS came in with an amyloid nucleation score of 1.61 ± 0.52.

Substance FLSYYFGPFRELVF showed an amyloid nucleation score of -0.287 ± 0.56.

As to SYYTL, the amyloid nucleation score entry is “inactive”.

Turning to CIMMYVT, the amyloid nucleation score came to 0.259 ± 0.17.

With DWRLARLSSVRFLNGIDCDF, the amyloid nucleation score stood at 0.015 ± 0.56.

In turn, VYHDHLKLWSKGTSRVAWAL gave an amyloid nucleation score of 2.34 ± 0.16.

In turn, VVYWRWTTPDLRVKAHGLFF gave an amyloid nucleation score of 0.438 ± 0.5.

The substance WDIYQVGGTMSLDVFVKV displayed an amyloid nucleation score of -0.2 ± 0.3.

With DCSDLVSLLCNVRHAHGRWL, the amyloid nucleation score was found to be 4.42 ± 0.067.

Regarding NRCWGDHEV, the amyloid nucleation score came out at 0.435 ± 0.39.

For FMDIHRKMGTHVFLRKCFRI, the amyloid nucleation score was -0.771 ± 1.1.

Consider MIGVYDGLRHNVEQGFVWCE, for which the amyloid nucleation score was found to be 0.419 ± 0.51.

Substance ITFAYVSLTLHRINEMGYQL gave an amyloid nucleation score of 4.65 ± 0.049.

RSHLSTLEMSTSIGKGNPNY had an amyloid nucleation score of 0.685 ± 0.56.

Substance FRLYPVPESKDLGRPGMPRQ had an amyloid nucleation score of 0.308 ± 0.23.

The substance RGMVLS registered an amyloid nucleation score of -0.129 ± 1.1.

The substance NDLSNGSVESMRQYYYLREN returned an amyloid nucleation score of -0.724 ± 0.3.

KVSWFVRIYMCEIRMRIGRS: the amyloid nucleation score worked out at 1.44 ± 0.33.

Regarding CLSRHAHRRRGMVYAGDYRA, the amyloid nucleation score was -0.256 ± 0.49.

With GLSVKTGQGSGFPDLCVGKR, the amyloid nucleation score was 0.838 ± 0.17.

Turning to PWHDEVVVSNQVYTYMGPSS, the amyloid nucleation score is 0.074 ± 0.3.

In the case of DSWFEQCVVFWLKTNCPQQE, the amyloid nucleation score is -0.069 ± 0.25.

Consider GRGERCKGSKIGCSRKAKID, for which the amyloid nucleation score was 0.98 ± 0.3.

As for TLPWFGSFLRGVFKVPLIRG, the amyloid nucleation score was 2.27 ± 0.1.

QSRDKYLKFRPSLWATEMTW yielded an amyloid nucleation score of -0.127 ± 0.31.

Turning to CKKLMLILEFWMCMLSLNIA, the amyloid nucleation score turned out to be 3.58 ± 0.072.

On to SSRLALEVDKATKRVW, for which the amyloid nucleation score is -0.474 ± 1.1.

For the substance VIVGSLRCHFSLVAWVKC, the amyloid nucleation score was determined as 0.651 ± 0.51.

As for GVCMSLEVKNKKLSNEHNS, the amyloid nucleation score is 5.18 ± 0.092.

In turn, EDDVSYNSFSGQASLWKFPK yielded an amyloid nucleation score of -0.818 ± 0.56.

Consider GIVFVLLLMNVFEVCRSELM, for which the amyloid nucleation score entry was “inactive”.

Turning to TSTTYRLYKLGQFLARPANQ, the amyloid nucleation score is -0.637 ± 1.1.

YVNFD returned an amyloid nucleation score of -0.299 ± 0.48.

SFRMKAALRRGNPNRAMDLT displayed an amyloid nucleation score of 2.33 ± 0.098.

Substance HNMPARKYINSLMTFHVRWP had an amyloid nucleation score of -0.321 ± 0.79.

In turn, ATTFKPAHLSRYMWLATYPV returned an amyloid nucleation score of 0.765 ± 0.41.

As for RKILVKMNYFMRHLMNCVTE, the amyloid nucleation score entry is “inactive”.

As to HESVHTTHFMAFYC, the amyloid nucleation score came out at 0.124 ± 0.61.

For WMRFYSYNGIY, the amyloid nucleation score is -1.26 ± 1.1.

For the substance NGQYDDTG, the amyloid nucleation score amounted to 2.32 ± 0.14.

Substance SRRGDRSRWCEMVMDVKVCS showed an amyloid nucleation score of 5.208 ± 0.041.

The substance LFFIIDNSQLSSSVDGLIVE returned an amyloid nucleation score of -0.583 ± 1.

On to MCEYLWCMGACNQASLTYLS, for which the amyloid nucleation score turned out to be 5.787 ± 0.032.

The substance KIINNSANGNIYVVNRVLTL displayed an amyloid nucleation score of 8.174 ± 0.046.

Take SLWKLGSLMSTFFEL: the amyloid nucleation score is -0.758 ± 0.45.

In the case of IRLYKGVTWIFLSGSYLLRD, the amyloid nucleation score is -0.891 ± 1.1.

IFRVLTGVIK had an amyloid nucleation score of -0.277 ± 0.26.

KLFSYPIWWSRYCRMGRHRC had an amyloid nucleation score of 0.374 ± 0.28.

On to HVRGDLSRTGKWVMLRCYTR, for which the amyloid nucleation score entry was “inactive”.

FLPNFSNVLFSLHPASKSGE registered an amyloid nucleation score of -0.218 ± 0.48.

Substance AVVVREAFLLFLKAIERAGI registered an amyloid nucleation score of -1.31 ± 0.55.

VTALDLMNGIWSRNMPGEVV: the amyloid nucleation score was -0.18 ± 0.19.

In the case of CMYNRLLLLGALFVTPQWVR, the amyloid nucleation score was determined as 0.079 ± 0.5.

As for NQFNVFFASVVLVVGCICNH, the amyloid nucleation score is 7.622 ± 0.029.

Substance IVICSVFSIMTRLFRSVNGR displayed an amyloid nucleation score of 8.429 ± 0.062.

The substance WPKSAILIHCRVANGLCRFV registered an amyloid nucleation score of 6.586 ± 0.046.

In turn, YVTCCSGVGVMLFRCANLNC gave an amyloid nucleation score of 5.37 ± 0.082.

As to SALRSSEEFSAFCVE, the amyloid nucleation score is -0.084 ± 0.74.

Regarding RYRWDLSPRNTTTN, the amyloid nucleation score was 3.22 ± 0.072.

WWETSIFFWEGIYT: the amyloid nucleation score was -0.22 ± 0.8.

For the substance DMLPVRVVAHWCVVARCTRV, the amyloid nucleation score worked out at 0.965 ± 0.2.

As for WSMCFMPVRWSFSGTIYMHK, the amyloid nucleation score was determined as 0.472 ± 0.56.

As to SDNRENFSRTFCFSVVGNWK, the amyloid nucleation score result was “inactive”.

CDPVSNFCIMLMCFIREYGR came in with an amyloid nucleation score of 1.99 ± 0.087.

As to YISFSDEVFV, the amyloid nucleation score entry was “inactive”.

In turn, IALTQILLRFFGLHA registered an amyloid nucleation score of -0.305 ± 1.1.

VVSKVLNKYF registered an amyloid nucleation score of 0.189 ± 0.65.

In turn, MTSALGWQIYVYLSGAEYET came in with an amyloid nucleation score of 0.31 ± 0.5.
